One assay addresses huPD-L1 (Homo sapiens, UniProt Q9NZQ7). Briefly: Flow binding to CHO cells stably expressing PD-L1. Also on record: huCTLA4 and huPD-L1, full-length mammalian surface expression constructs were generated; expressed in transfected cells; host or cells: CHO cells, lentiviral transduction, sorted to >98% purity. Particulars: CHO cells stably expressing PD-L1. The method, then:
(§1) Binding of selected immunomodulatory fusion proteins to cognate binding partners was assessed. […] Cells were sorted in a Bio-Rad S3 Cell Sorter (Bio-Rad Corp., USA) to >98% purity. Jurkat/IL2 reporter cells, which endogenously express CD28, were used to detect binding to CD28.
(§2) For staining and analysis by flow cytometry, 100,000 cells of appropriate transfected cells were plated in 96-well round bottom plates. Cells were spun down and resuspended in staining buffer (phosphate buffered saline (PBS), 1% bovine serum albumin (BSA), and 0.1% sodium azide) for 20 minutes to block non-specific binding. […] Primary staining was performed on ice for 45 minutes, before washing cells in staining buffer twice. Phycoerythrin (PE)-conjugated anti-human Fc (Jackson ImmunoResearch, USA) was diluted 1:150, added to cells and incubated another 30 minutes on ice. Cells were then washed twice with 150 μL/well stain buffer, fixed in 2% formaldehyde/PBS, and analyzed on Intellicyt flow cytometer (Intellicyt Corp., USA). PE Mean Fluorescence Intensity (MFI) was calculated for each cell type with FlowJo Version 10 software (FlowJo LLC, USA).
(§3) Binding assays were carried out to assess the specificity and affinity of multivalent proteins to cell-expressed CTLA-4, CD28, and PD-L1 counter structures.
(§4) The EC50 for binding also was determined.

Another assay has as its target CD28 (Homo sapiens, UniProt P10747). Nature of the assay: Jurkat/IL2 + CHO/OKT3 +/- PD-L1 reporter assay: PD-L1-dependent CD28 costimulation. Type of assay: cell-based. Also on record: host or cells: Jurkat cells expressing an IL-2-luciferase reporter. The following applies: Jurkat/IL2 + CHO/OKT3/PD-L1. The method, then:
Jurkat cells were then plated at 50 μL/well for a total of 100,000 cells per well.
To each well, 25 μL of test protein was added to the Jurkat cells. […] The Jurkat cells with test or control proteins were incubated for 15 minutes at room temperature. CHO-derived artificial antigen presenting cells (aAPC) displaying transduced cell surface anti-CD3 single chain Fv (OKT3) (i.e., no PD-L1), or OKT3 and PD-L1 (i.e., +PD-L1), were brought to 0.8×10^6 cells/mL, and 25 μL of cells were added to each well, bringing the final volume of each well to 100 μL. […] Jurkat cells and CHO cells were incubated for 5 hours at 37 degrees Celsius in a humidified 5% CO2 incubation chamber. Plates were then removed from the incubator and acclimated to room temperature for 15 minutes. 100 μL of a cell lysis and luciferase substrate solution (BioGlo luciferase reagent, Promega) were added to each well and the plates were incubated on an orbital shaker for 10 minutes. Luminescence was measured with a 1 second per well integration time using a BioTek Cytation luminometer, and a relative luminescence value (RLU) was determined for each test sample.

A further assay addresses huCTLA4 (Homo sapiens, UniProt P16410). Briefly: Flow binding to CHO cells stably expressing CTLA4. Also on record: huCTLA4 and huPD-L1, full-length mammalian surface expression constructs were generated; expressed in transfected cells; host or cells: CHO cells, lentiviral transduction, sorted to >98% purity. The following applies: CHO cells stably expressing CTLA4. The method, then: as §1, §2, §3, §4

Where a chain is given by its changes, count along the chain named. In names and notes the source's numbering stands.

Chain of huCTLA4 (P16410 36-223): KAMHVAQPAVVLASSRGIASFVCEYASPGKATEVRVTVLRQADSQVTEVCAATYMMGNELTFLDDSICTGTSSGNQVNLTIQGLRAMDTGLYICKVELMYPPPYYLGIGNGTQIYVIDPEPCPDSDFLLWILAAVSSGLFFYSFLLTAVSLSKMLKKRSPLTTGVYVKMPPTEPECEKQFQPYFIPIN
Chain of huPD-L1 (Q9NZQ7 19-290): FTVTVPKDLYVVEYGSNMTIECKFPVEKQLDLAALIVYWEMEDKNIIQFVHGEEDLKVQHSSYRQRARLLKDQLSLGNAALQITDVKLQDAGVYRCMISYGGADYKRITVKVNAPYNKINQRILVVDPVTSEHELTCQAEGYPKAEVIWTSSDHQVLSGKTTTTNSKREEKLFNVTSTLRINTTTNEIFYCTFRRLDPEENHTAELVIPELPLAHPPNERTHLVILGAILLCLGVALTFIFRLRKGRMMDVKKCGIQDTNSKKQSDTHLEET

B1: V22D/E24D/E35D/M47L/V68M/L85M/D90G (protein)
chain: VIHVTKEVKEVATLSCGHNVSDEDLAQTRIYWQKDKKMVLTMMSGDLNIWPEYKNRTIFDITNNLSIMILALRPSDEGTYECVVMKYEKGAFKREHLAEVTLSVKADFPTPSISDFETPTSNIRRIICSTSGGFPEPHLSWLENGEELNAINTTVSQDPETELYAVSSKLDFNMTTNHSFMCLIKYGHLRVNQTFNWNTTKQEHFPDN
modifications: CD80 v384 ECD
For B1, the “PD-L1 MFI at 33.3 nM” value in the assay with huPD-L1 (Table E11, 33.3 nM) came out at 19047. Further, in the assay with CD28 (Table E13, 5.0 nM), the “Relative Luciferase Units (RLU), CD80 Cone 5.0 nM” value was 963 RLU.

B2: E35D/M38I/M43V/M47V/N48R/L85Q (protein)
chain: VIHVTKEVKEVATLSCGHNVSVEELAQTRIYWQKDKKTVLTMVSGDVRIWPEYKNRTIFDITNNLSIVILALRPSDEGTYECVVQKYEKDAFKREHLAEVTLSVKAD
Turning to B2, the “CTLA4 MFI at 33.3 nM” value in the assay with huCTLA4 (Table E4, 33.3 nM variant CD80 IgV-Fc) turned out to be 203938.

B3: D46V/M47L (protein)
chain: B2 chain with D35E, T38M, V43M, D46V, V47L, R48N, Q85L
In the case of B3, the “CTLA4 MFI at 33.3 nM” value with huCTLA4 (Table E19, 33.3 nM) came to 49711.

B4: H18Y/E35D/M47V/N48K (protein)
chain: B2 chain with H18Y, T38M, V43M, R48K, Q85L
For B4, the “PD-L1 MFI at 33.3 nM” value with huPD-L1 (Table E10, 33.3 nM) was 6462. Besides, the “Relative Luciferase Units (RLU), CD80 Cone 5.0 nM” value in the assay with CD28 (Table E12, 5.0 nM) turned out to be 2146 RLU.

B5: E35D/D46V (protein)
chain: B2 chain with T38M, V43M, D46V, V47M, R48N, Q85L
Turning to B5, the “PD-L1 MFI at 33.3 nM” value with huPD-L1 (Table E19, 33.3 nM) is recorded as 3971.

B6: E35D/M47V/V68M (protein)
chain: B2 chain with T38M, V43M, R48N, V68M, Q85L
Take B6: the “Relative Luciferase Units (RLU), CD80 Conc 5.0 nM” value with CD28 (Table E21, CD80 Conc 5.0 nM) came to 841 RLU.

B7: H18Y/A26P/E35D/M47T/V68M/A71G (protein)
chain: B2 chain with H18Y, A26P, T38M, V43M, V47I, R48N, V68M, A71G, Q85L
As to B7, in the assay with CD28 (Table E24, 5.0 nM), the “Fold Increase over WT CD80-IgV-Fe” value came to 4.5 and the “Relative Luciferase Units (RLU), CD80 Conc 5.0 nM” value is on record as 761 RLU.

B8: H18Y/E35D/M47L/A71G (protein)
chain: B2 chain with H18Y, T38M, V43M, V47L, R48N, A71G, Q85L
Consider B8, for which the “Relative Luciferase Units (RLU), CD80 Conc 5.0 nM” value in the assay with CD28 (Table E22, CD80 Conc 5.0 nM) came to 1387 RLU.

B9: M47V/N48K/V68M/K89N (protein)
chain: B2 chain with D35E, T38M, V43M, R48K, V68M, Q85L, K89N
With B9, the “PD-L1 MFI at 33.3 nM” value with huPD-L1 (Table E19, 33.3 nM) was determined as 23666. The “Relative Luciferase Units (RLU), CD80 Conc 5.0 nM” value with CD28 (Table E21, CD80 Conc 5.0 nM) is recorded as 671 RLU.

B10: E35D/M47L/A71G (protein)
chain: B2 chain with T38M, V43M, V47L, R48N, A71G, Q85L
With B10, in the assay with huCTLA4 (Table E10, 33.3 nM), the “CTLA4 MFI at 33.3 nM” value stood at 20576. In addition, the “Relative Luciferase Units (RLU), CD80 Cone 5.0 nM” value with CD28 (Table E12, 5.0 nM) is reported as 1954 RLU.

B11: N48K/V68M/K89N (protein)
chain: B2 chain with D35E, T38M, V43M, V47M, R48K, V68M, Q85L, K89N
With B11, the “PD-L1 MFI at 33.3 nM” value in the assay with huPD-L1 (Table E19, 33.3 nM) was 11464. Also, the “CTLA4 MFI at 33.3 nM” value with huCTLA4 (Table E19, 33.3 nM) is on record as 19129.

B12: D46V/M47L/V68M/L85Q (protein)
chain: B2 chain with D35E, T38M, V43M, D46V, V47L, R48N, V68M
Regarding B12, the “Relative Luciferase Units (RLU), CD80 Conc 5.0 nM” value with CD28 (Table E21, CD80 Conc 5.0 nM) is given as 654 RLU.

B13: T13R/Q27L/Q33L/E35D/T41S/M47V/N48KN68M/L85M (protein)
chain: B2 chain with T13R, Q27L, Q33L, T38M, T41S, V43M, R48K, V68M, Q85M
Turning to B13, in the assay with CD28 (Table E13, 5.0 nM), the “Fold Increase over WT CD80-IgV-Fe” value was found to be 0.4 and the “Relative Luciferase Units (RLU), CD80 Cone 5.0 nM” value is 170 RLU.

B14: H181/A26P/E35D/M47V/V68M/A71G (protein)
chain: B2 chain with H18I, A26P, T38M, V43M, R48N, V68M, A71G, Q85L
For B14, in the assay with CD28 (Table E24, 5.0 nM), the “Fold Increase over WT CD80-IgV-Fe” value is 5.4 and the “Relative Luciferase Units (RLU), CD80 Conc 5.0 nM” value was 916 RLU.

B15: H18Y/M47L/V68M/A71G (protein)
chain: B2 chain with H18Y, D35E, T38M, V43M, V47L, R48N, V68M, A71G, Q85L
As for B15, the “PD-L1 MFI at 33.3 nM” value in the assay with huPD-L1 (Table E20, 33.3 nM) is on record as 28478.

B16: E35D/M43I/M47L/L85M (protein)
chain: B2 chain with T38M, V43I, V47L, R48N, Q85M
For B16, in the assay with huCTLA4 (Table E10, 33.3 nM), the “CTLA4 MFI at 33.3 nM” value was 24584. Also, the “Relative Luciferase Units (RLU), CD80 Cone 5.0 nM” value with CD28 (Table E12, 5.0 nM) was 1427 RLU.

B17: E35D/D46E/M47L/V68M/A71G/Y87C/K93R (protein, UniProt P33681 35-288, looked up, variant E35D D46E M47L V68M A71G Y87C K93R)
T-lymphocyte activation …: VIHVTKEVKEVATLSCGHNVSVEELAQTRIYWQKDKKMVLTMMSGELNIWPEYKNRTIFDITNNLSIMILGLRPSDEGTYECVVLKCEKDAFRREHLAEVTLSVKADFPTPSISDFEIPTSNIRRIICSTSGGFPEPHLSWLENGEELNAINTTVSQDPETELYAVSSKLDFNMTTNHSFMCLIKYGHLRVNQTFNWNTTKQEHFPDNLLPSWAITLISVNGIFVICCLTYCFAPRCRERRRNERLRRESVRPV
B17: the “Relative Luciferase Units (RLU), CD80 Cone 5.0 nM” value with CD28 (Table E13, 5.0 nM) was 1198 RLU.

B18: E35D/M47V/N48K/V68M/L85M (protein, UniProt P33681 35-288, looked up, variant E35D M47V N48K V68M L85M)
T-lymphocyte activation …: B17 T-lymphocyte activation … with E46D, L47V, N48K, G71A, L85M, C87Y, R93K
B18: in the assay with CD28 (Table E13, 5.0 nM), the “Fold Increase over WT CD80-IgV-Fe” value turned out to be 3.0 and the “Relative Luciferase Units (RLU), CD80 Cone 5.0 nM” value amounted to 1203 RLU.

B19: H18V/A26N/E35D/M47V/V68M/A71G (protein, UniProt P33681 35-288, looked up, variant H18V A26N E35D M47V V68M A71G)
T-lymphocyte activation …: B17 T-lymphocyte activation … with H18V, A26N, E46D, L47V, C87Y, R93K
On to B19, for which the “PD-L1 MFI at 33.3 nM” value with huPD-L1 (Table E23, CD80 IgV-Fc (inert) at 33.3 nM) was found to be 68165. The “Relative Luciferase Units (RLU), CD80 Conc 5.0 nM” value in the assay with CD28 (Table E24, 5.0 nM) amounted to 985 RLU.

B20: T13R/E35D/M47L/V68M (protein, UniProt P33681 35-288, looked up, variant T13R E35D M47L V68M)
T-lymphocyte activation …: B17 T-lymphocyte activation … with T13R, E46D, G71A, C87Y, R93K
B20: in the assay with CD28 (Table E13, 5.0 nM), the “Fold Increase over WT CD80-IgV-Fe” value was 2.6 and the “Relative Luciferase Units (RLU), CD80 Cone 5.0 nM” value is recorded as 1021 RLU.
